Source: FireProtDB (doi:10.1110/ps.5101)

Conditions: Pseudomonas aeruginosa (strain ATCC 15692 / DSM 22644 / CIP 104116 / JCM 14847 / LMG 12228 / 1C / PRS 101 / PAO1); pH 7; 10 °C; GdnHCl; Fluorescence; sodium phosphate 50 mM; reversible: yes; whole UniProt chain shown

B1: Cytochrome c-551 wild type, P00099 (protein)
chain: MKPYALLSLLATGTLLAQGAWAEDPEVLFKNKGCVACHAIDTKMVGPAYKDVAAKFAGQAGAEAELAQRIKNGSQGVWGPIPMPPNAVSDDEAQTLAKWVLSQK
  denaturant m value: 3.3 kcal/mol/M
  denaturant midpoint (higher = more stable): 1.8 M
  unfolding free energy: 6.1 kcal/mol
